Assay results published in patent US20240301086A1 (APTEVO RESEARCH AND DEVELOPMENT, published 2024).
Read-outs that look alike come from different tables or passages of the source.

T1: human Fcγ receptor IIA, R167 variant (human, UniProt P12318 36-218)
T1 construct: also called Type IIA R167
T1 sequence (looked up): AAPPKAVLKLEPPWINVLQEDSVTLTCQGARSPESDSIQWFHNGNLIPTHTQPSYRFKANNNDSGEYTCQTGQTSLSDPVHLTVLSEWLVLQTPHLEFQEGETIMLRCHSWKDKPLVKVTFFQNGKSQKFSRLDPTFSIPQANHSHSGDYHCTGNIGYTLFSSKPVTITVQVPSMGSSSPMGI

T2: human Fcγ receptor IIB/C (human, UniProt P31994 46-217)
T2 sequence (looked up): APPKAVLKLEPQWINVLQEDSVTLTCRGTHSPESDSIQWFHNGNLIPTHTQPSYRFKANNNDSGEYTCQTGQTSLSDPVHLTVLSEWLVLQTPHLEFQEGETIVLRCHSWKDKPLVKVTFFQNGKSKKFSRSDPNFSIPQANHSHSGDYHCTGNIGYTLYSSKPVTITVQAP

T3: human Fcγ receptor IIA, H167 variant (human, UniProt P12318 36-218)
T3 sequence (looked up): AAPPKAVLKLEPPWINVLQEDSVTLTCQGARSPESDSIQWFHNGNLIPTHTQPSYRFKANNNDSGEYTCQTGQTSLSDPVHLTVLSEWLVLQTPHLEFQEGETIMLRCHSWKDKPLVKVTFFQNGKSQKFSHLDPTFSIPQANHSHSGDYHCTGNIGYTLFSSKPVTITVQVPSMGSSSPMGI


Experiments:
[1] = target: T1, human Fcγ receptor IIA, R167 variant; experiment: SPR (Biacore T200), construct amine-coupled, Fcγ receptor titrated 375-6000 nM, 1:1 fit
Protocol: (§1) The Fc region incorporated into anti-PSMA bispecific constructs contained mutations intended to reduce or abolish binding to common human and cynomolgus Fc gamma receptors. SPR experiments were conducted at 25° C. in HBS-EP+ with 0.2% BSA buffer on a Biacore T200 system to evaluate the impact of these mutations on binding. For these experiments, three flow cells of a CM5 sensor chip were immobilized with anti-PSMA bispecifics by standard amine coupling to a response level of ˜2000 RU. A blank immobilization was performed on flow cell #1 for purposes of background signal subtraction. Both human and cynomolgus monkey Fcγ receptors (purchased from R&D Systems) were diluted in HBS-EP+ with 0.2% BSA to 4-6 μM and then flowed as analytes at 30 μL/min for 120 seconds followed by a 240 second dissociation step. No regeneration step was required. Blank-subtracted sensorgrams were visually inspected for binding to each of the Fcγ receptor proteins. […] Attenuated binding to Fcγ receptors IIA (both polymorphic variants) and IIB/C was observed. PSMA01107 and PSMA01108 share the same Fc amino acid sequence and therefore equivalent Fcγ receptor binding behavior was expected.
(§2) TSC266 (PSMA×CD3 bispecific antibody) and another protein containing a wild-type IgG1 Fc sequence were also analyzed for comparison. Sensorgrams obtained from kinetic SPR measurements were analyzed by the double subtraction method in the Biacore T200 evaluation software. Kinetic parameters were derived from a one-to-one binding fit model and reported below in Table 8. Both TSC266 and PSMA01107 show reduced binding compared to a wild type IgG1 Fc.

human Fcγ receptor IIB/C = target: T2, human Fcγ receptor IIB/C; experiment: as above
Protocol: as §1, §2

[2] = target: T3, human Fcγ receptor IIA, H167 variant; experiment: as above
Protocol: as §1, §2

[3] = target: T4, Human PSMA ECD-AFH (TSC033), recombinant dimeric PSMA ECD (human, UniProt Q04609 44-750); experiment: SPR (Biacore), recombinant dimeric PSMA ECD
T4 construct: SEC-purified dimer; also called HuPSMA-AFH; Avi-His-Human PSMA ECD
T4 sequence (Q04609 other isoform, or with tags, fused parts or gaps): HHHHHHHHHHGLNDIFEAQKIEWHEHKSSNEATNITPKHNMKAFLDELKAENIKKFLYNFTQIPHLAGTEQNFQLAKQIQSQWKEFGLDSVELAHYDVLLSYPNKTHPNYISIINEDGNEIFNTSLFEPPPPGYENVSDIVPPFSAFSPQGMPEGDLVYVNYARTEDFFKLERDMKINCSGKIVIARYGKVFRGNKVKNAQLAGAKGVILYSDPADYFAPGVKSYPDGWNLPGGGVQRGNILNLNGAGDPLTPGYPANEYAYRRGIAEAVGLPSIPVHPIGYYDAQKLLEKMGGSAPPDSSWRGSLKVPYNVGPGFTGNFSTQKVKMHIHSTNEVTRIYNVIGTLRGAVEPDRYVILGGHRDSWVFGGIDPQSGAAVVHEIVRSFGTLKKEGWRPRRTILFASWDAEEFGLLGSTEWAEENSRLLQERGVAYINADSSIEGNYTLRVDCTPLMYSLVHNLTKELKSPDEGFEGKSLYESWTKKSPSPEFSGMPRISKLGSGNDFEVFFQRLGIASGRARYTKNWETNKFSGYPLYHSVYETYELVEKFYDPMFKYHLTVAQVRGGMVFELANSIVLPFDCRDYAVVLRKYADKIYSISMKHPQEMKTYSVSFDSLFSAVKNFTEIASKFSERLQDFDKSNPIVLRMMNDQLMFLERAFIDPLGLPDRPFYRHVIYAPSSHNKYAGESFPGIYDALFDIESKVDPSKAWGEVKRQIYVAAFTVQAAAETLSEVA
Protocol: (§3) Mouse anti-human IgG (GE, BR-1008-39) at 25 μg/ml in 10 mM sodium acetate pH 5.0 was immobilized at a density of ˜2,000-4,000 response units (RU) onto each flow cell of a CM5 research-grade sensor chip (GE) by standard amine coupling chemistry. Each anti-PSMA protein at approximately 40 nM in dPBS with 0.2% BSA buffer was captured in a flow cell with the immobilized anti-human IgG at a flow rate of […] for up to 30 seconds, leaving one flow cell surface unmodified as the reference. Using a multi-cycle kinetics mode, a buffer blank and […] different concentrations of ECD ranging from 1 nM to 243 nM were sequentially injected through each flow cell at 30 μL/min with association times varying from 300-600 seconds and dissociation times varying from 600-1200 seconds. Regeneration was achieved by injection of 3 M MgCl₂ at a flow rate of 30 μL/min for up to 40 seconds followed by dPBS with 0.2% BSA buffer stabilization for 1 min.
(§4) The KD was determined for a set of PSMA×CD3 bispecific proteins binding to recombinant dimeric PSMA ECD using SPR. In comparison to the constructs analyzed in Table 3, which all had the anti-PSMA scFv in the VL-VH orientation, the constructs in Table 11 have sequences with the reverse the order of the variable domains. The constructs below utilize the PSMA01023 anti-PSMA sequence as a basis.

[4] = target: T4, Human PSMA ECD-AFH (TSC033), …; experiment: SPR (Biacore), recombinant dimeric PSMA ECD; remark: listed apart in the source
Protocol: as §3, §4

Kd [1] | Kd (human Fcγ receptor IIB/C) | Kd [2] | Kd [3] | koff [3] | kon [3] | Kd [4] | Binder
1500 nM | 2700 nM | 20000 nM | – | – | – | – | TSC266 Anti PSMA scFv x Anti CD3 scFv ADAPTIR (bispecific antibody, The anti-PSMA domain is that of PSMA01012 and the anti-CD3 domain is DRA222; also called unoptimized parent construct; TSC266 control (PSMA × CD3 bispecific protein)) DIQMTQSPSAMSASVGDRVTITCRASKSISKYLAWFQQKPGKVPKLRIHSGSTLQSGVPSRFSGSGSGTEFTLTISSLQPEDFATYYCQQHIEYPWTFGQGTKVEIKRGGGGSGGGGSGGGGSQVQLVQSGAEVKKPGASVKVSCKASGYTFTDYYMHWVRQAPGQGLEWMGYFNPYNDYTRYAQKFQGRVTMTRDTSISTAYMELSSLRSDDTAVYYCARSDGYYDAMDYWGQGTTVTVSSSEPKSSDKTHTCPPCPAPEAAGAPSVFLFPPKPKDTLMISRTPEVTCVVVDVSHEDPEVKFNWYVDGVEVHNAKTKPREEQYNSTYRVVSVLTVLHQDWLNGKAYACAVSNKALPAPIEKTISKAKGQPREPQVYTLPPSRDELTKNQVSLTCLVKGFYPSDIAVEWESNGQPENNYKTTPPVLDSDGSFFLYSKLTVDKSRWQQGNVFSCSVMHEALHNHYTQKSLSLSPGQRHNNSSLNTGTQMAGHSPNSQVQLVESGGGVVQPGRSLRLSCKASGYTFTRSTMHWVRQAPGQGLEWIGYINPSSAYTNYNQKFKDRFTISADKSKSTAFLQMDSLRPEDTGVYFCARPQVHYDYNGFPYWGQGTPVTVSSGGGGSGGGGSGGGGSAQDIQMTQSPSSLSASVGDRVTMTCSASSSVSYMNWYQQKPGKAPKRWIYDSSKLASGVPARFSGSGSGTDYTLTISSLQPEDFATYYCQQWSRNPPTFGGGTKLQITSSS
5300 nM | 6500 nM | 19900 nM | 3.4 nM | 8.5e-05 s⁻¹ | 29000 M⁻¹ s⁻¹ | < 10 nM | PSMA01107 Anti-PSMA scFv x Fc x linker x Anti CD3 scFv; Anti PSMA scFv x Fc (bispecific antibody, Heterodimer, bivalent for PSMA and monovalent for CD3 (VH-VL scFv at the C-terminus); also called PSMA1107) chain 1: QVQLVQSGAEVKKPGASVKVSCKASGYTFTDYYMHWVRQAPGQGLEWMGYFNPYNDYTRYAQKFQGRVTMTRDTSTSTVYMELSSLRSEDTAVYYCARSDGYYDAMDYWGQGTTVTVSSGGGGSGGGGSGGGGSGGGGSDIQMTQSPSSLSASVGDRVTITCRASKSISKYLAWYQQKPGKAPKLLIHSGSSLESGVPSRFSGSGSGTEFTLTISSLQPDDFATYYCQQHIEYPWTFGQGTKVEIKEPKSSDKTHTCPPCPAPPAAAPSVFLFPPKPKDTLMISRTPEVTCVVVDVSHEDPEVKFNWYVDGVEVHNAKTKPREEQYNSTYRVVSVLTVLHQDWLNGKEYKCAVSNKALPAPIEKTISKAKGQPREPQVYTLPPSRDELTKNQVSLWCLVKGFYPSDIAVEWESNGQPENNYKTTPPVLDSDGSFFLYSKLTVDKSRWQQGNVFSCSVMHEALHNHYTQKSLSLSPGGGGSPSQVQLVQSGAEVKKPGASVKVSCKASGYTFTRSTMHWVRQAPGQGLEWIGYINPSSAYTNYAQKFQGRVTLTADKSTSTAYMELSSLRSEDTAVYYCASPQVHYDYNGFPYWGQGTLVTVSSGGGGSGGGGSGGGGSGGGGSDIQMTQSPSSLSASVGDRVTITCRASSSVSYMNWYQQKPGKAPKRWIYDSSKLASGVPSRFSGSGSGTDFTLTISSLQPEDFATYYCQQWSRNPPTFGQGTKVEIKRS chain 2: QVQLVQSGAEVKKPGASVKVSCKASGYTFTDYYMHWVRQAPGQGLEWMGYFNPYNDYTRYAQKFQGRVTMTRDTSTSTVYMELSSLRSEDTAVYYCARSDGYYDAMDYWGQGTTVTVSSGGGGSGGGGSGGGGSGGGGSDIQMTQSPSSLSASVGDRVTITCRASKSISKYLAWYQQKPGKAPKLLIHSGSSLESGVPSRFSGSGSGTEFTLTISSLQPDDFATYYCQQHIEYPWTFGQGTKVEIKEPKSSDKTHTCPPCPAPPAAAPSVFLFPPKPKDTLMISRTPEVTCVVVDVSHEDPEVKFNWYVDGVEVHNAKTKPREEQYNSTYRVVSVLTVLHQDWLNGKEYKCAVSNKALPAPIEKTISKAKGQPREPQVYTLPPSRDELTKNQVSLSCAVKGFYPSDIAVEWESNGQPENNYKTTPPVLDSDGSFFLVSKLTVDKSRWQQGNVFSCSVMHEALHNHYTQKSLSLSPG
– | – | – | 3.1 nM | 9e-05 s⁻¹ | 29000 M⁻¹ s⁻¹ | < 10 nM | PSMA01108 Anti-PSMA scFv x Fc x linker x Anti CD3 scFv; Anti PSMA scFv x Fc (bispecific antibody, also called PSMA1108; PSAM01108) chain 1: QVQLVQSGAEVKKPGASVKVSCKASGYTFTDYYMHWVRQAPGQGLEWMGYFNPYNDYTRYAQKFQGRVTMTRDTSTSTVYMELSSLRSEDTAVYYCARSDGYYDAMDYWGQGTTVTVSSGGGGSGGGGSGGGGSGGGGSDIQMTQSPSSLSASVGDRVTITCRASKSISKYLAWYQQKPGKAPKLLIHSGSSLESGVPSRFSGSGSGTEFTLTISSLQPDDFATYYCQQHIEYPWTFGQGTKVEIKEPKSSDKTHTCPPCPAPPAAAPSVFLFPPKPKDTLMISRTPEVTCVVVDVSHEDPEVKFNWYVDGVEVHNAKTKPREEQYNSTYRVVSVLTVLHQDWLNGKEYKCAVSNKALPAPIEKTISKAKGQPREPQVYTLPPSRDELTKNQVSLWCLVKGFYPSDIAVEWESNGQPENNYKTTPPVLDSDGSFFLYSKLTVDKSRWQQGNVFSCSVMHEALHNHYTQKSLSLSPGGGGSPSDIQMTQSPSSLSASVGDRVTITCRASSSVSYMNWYQQKPGKAPKRWIYDSSKLASGVPSRFSGSGSGTDFTLTISSLQPEDFATYYCQQWSRNPPTFGQGTKVEIKGGGGSGGGGSGGGGSGGGGSQVQLVQSGAEVKKPGASVKVSCKASGYTFTRSTMHWVRQAPGQGLEWIGYINPSSAYTNYAQKFQGRVTLTADKSTSTAYMELSSLRSEDTAVYYCASPQVHYDYNGFPYWGQGTLVTVSS chain 2: QVQLVQSGAEVKKPGASVKVSCKASGYTFTDYYMHWVRQAPGQGLEWMGYFNPYNDYTRYAQKFQGRVTMTRDTSTSTVYMELSSLRSEDTAVYYCARSDGYYDAMDYWGQGTTVTVSSGGGGSGGGGSGGGGSGGGGSDIQMTQSPSSLSASVGDRVTITCRASKSISKYLAWYQQKPGKAPKLLIHSGSSLESGVPSRFSGSGSGTEFTLTISSLQPDDFATYYCQQHIEYPWTFGQGTKVEIKEPKSSDKTHTCPPCPAPPAAAPSVFLFPPKPKDTLMISRTPEVTCVVVDVSHEDPEVKFNWYVDGVEVHNAKTKPREEQYNSTYRVVSVLTVLHQDWLNGKEYKCAVSNKALPAPIEKTISKAKGQPREPQVYTLPPSRDELTKNQVSLSCAVKGFYPSDIAVEWESNGQPENNYKTTPPVLDSDGSFFLVSKLTVDKSRWQQGNVFSCSVMHEALHNHYTQKSLSLSPG
